According to patent publication EP0155825A2, “Novel choline derivatives” (NITTO BOSEKI CO., LTD., priority 1984, dated 1985):

Substrate: C[N+](C)(C)CCOC(=O)c1ccc(O)c(O)c1
Experiment: Km of the substrate for cholinesterase (UV method, absorbance decrease at 340 nm)
Assay type: biochemical
Settings: other: 50 mM TRIS-maleate buffer (pH 8.20); compound as substrate of Ch-E; pH 8.2; 37.0 °C
Description: Fig. 1 represents UV spectra of 3,4-dihydroxybenzoylcholine iodide (hereinafter referred to briefly as DHBCI) and 3,4-dihydroxybenzoic acid. When DHBCI is hydrolyzed by the action of Ch-E, there are formed choline and 3,4-dihydroxybenzoic acid. […] Therefore, when DHBCI, a novel compound according to the present invention, is used as substrate in the assay of enzymatic activity of Ch-E and the reaction is traced through the absorbance at a wavelength of 340-360 nm, it is possible to follow precisely the decrease in substrate DHBCI. In the previously mentioned method of W. Kalow, since the measurement is done at a shorter wavelength of 240 nm, the initial absorption is interfered with by the blood constituents, whereas at a wavelength of 340-360 nm, the interference is very little and the conditions of reaction can be set up more easily. […]
The assay was performed by adjusting the substrate concentration to 0.25 mM with a 50 mM TRIS-maleate buffer (pH 8.20), preheating for about 5 minutes 2.0 mt of-the adjusted solution to 37°C, admixing the preheated solution with 200 µℓ of a serum, and immediately measuring the absorbance decrease at 340 nm of the mixture at 37°C. […] The activity of Ch-E was calculated from the following equation: [formula] • ^* ΔO.D.: Absorbance change per minute at a wavelength of 340 nm. • ^** Molar absorbance at 340 nm: 2960

B1: cholinesterase (enzyme code number of 3.1.1.8; referred to briefly as Ch-E) (Homo sapiens) (protein)
chain: EDDIIIATKNGKVRGMNLTVFGGTVTAFLGIPYAQPPLGRLRFKKPQSLTKWSDIWNATKYANSCCQNIDQSFPGFHGSEMWNPNTDLSEDCLYLNVWIPAPKPKNATVLIWIYGGGFQTGTSSLHVYDGKFLARVERVIVVSMNYRVGALGFLALPGNPEAPGNMGLFDQQLALQWVQKNIAAFGGNPKSVTLFGESAGAASVSLHLLSPGSHSLFTRAILQSGSFNAPWAVTSLYEARNRTLNLAKLTGCSRENETEIIKCLRNKDPQEILLNEAFVVPYGTPLSVNFGPTVDGDFLTDMPDILLELGQFKKTQILVGVNKDEGTAFLVYGAPGFSKDNNSIITRKEFQEGLKIFFPGVSEFGKESILFHYTDWVDDQRPENYREALGDVVGDYNFICPALEFTKKFSEWGNNAFFYYFEHRSSKLPWPEWMGVMHGYEIEFVFGLPLERRDNYTKAEEILSRSIVKRWANFAKYGNPNETQNNSTSWPVFKSTEQKYLTLNTESTRIMTKLRAQQCRFWTSFFPKVLEMTGNIDEAEWEWKAGFHRWNNYMMDWKNQFNDYTSKKESCVGL
notes: admixing the preheated solution with 200 µℓ of a serum; tissue Nissui Seiyaku Co. consera I; host or cells: serum (commercial control serum)
  Km: 26 µM
